# Source: the DeepSol protein solubility set
# Experiment: soluble on expression in E. coli; label from the status in PepcDB or PDB records
row,Sequence,soluble on expression in E. coli
1,MHTDINALFAALWQDYIQMTPSAAKVHELLGHGKPIINDHIALRTFNIAKVNLAVLAEHFTSLGYVACGDYKFEQKKLIAKHFEHPDATQPKVFISELLVEEFSSALQSTIQGLIAQVDEQATKADNFIYSGRHWTLDSKTYEALLEESEYAAWVAAFGYRANHFTVSINHLEGFDTLESVNDALKQAGFVLNTSGGEIKGSPEVLLEQSSTMADKIAVEFSDATVEIPSCFYEFALRYPKANGELYTGFVAASADKIFESTNAKKAAAALEHHHHHH,not soluble
2,MHTRAEKLEAFGRLLDVLDTLREQCPWDRKQTNESLRTNTIEEVYELSEALLGECPDDIRKELGDVLLHVAFYAKIGEEKGQFDIASVCHALCDKLIYRHPHIYGNVQVENAAEVVRNWEQLKLREKDGNKSVLSGVPKSLPALVKSYRMQEKAAGVGFDWEQREQVWPKVEEELNEVRGAIVSEDPDAMEAEFGDLLFAVVNAARLYGINPDNALERTNRKFDSRFSYVEQRAKQQGKALRDMTLSEMDALWNEAKQKGL,not soluble
3,MHTVAVSGPPETGFRSVVCARRWLANPYAPGRPTVRCMNVDDHAEELASDLGVDKAEVKENLQNLVEYSVPLEEAKRSLRRKYGDDDGAPSGGPTAVDIADVDTDSGNVTVTATVLTAGKRSIRYQGDDHVIGEGELADETGRISYTAWEEFGLEPGDTVTIGNASVREWEGSPELNFGESATVTSADGDIEMAAEVGGDRDLAALSAGDRGRNVEAVVTEVEERTIDGRDGETEILSGVLGDETARLPFTDWDPHGEIEAGASVRIEDVYVREFRGVPSVNVSEFSTVERLDHEVEVGGPTRMAIRDAVARGGAYDVELVGSVIDIRDGSGLIKRCPDCGRVVQTGQCRQHGAVEAEDDLRVKAVLDDGTDSVTAILDRELTADVYGGTLADAREQAREAMDHSVVADTIAEDVVGREFRVRGHLSVDEYGANLETIAFAERDDDPAARAAAFLAEVDALEHHHHHH,not soluble
4,MHVDPIVEALIIRRKEHGLSREQMANIAGMSVKTYQRIERGESDLKLSQYRSILRSLNLTDLDIALDIRGIEHVTAEDLVTVARLLSPEAQSLLVRLLSLVLEQRSDPNAS,not soluble
5,MHVGIVAQRGNERATSLAGEIREQLRALEVTVWVDTATAEALACAGECGRDTTAFTDCDLVVSIGGDGTFLFAARGAGATPILGVNLGEVGFLNAVAPADAVEAVREEVNRYRETGAVRCREVPRVVAAGDGWASTPALNEVAIQGEQRGHGHGVAVDVRVDGSQYEATRADGVLVATPTGSTAYNLSEGGPLVQPSVDALVVTEMCGADALPPLVTGLDSEIRIRVETLDDGGEGRVVVASDGGRLTRVDPPVEMTVTAADEPARVAGPAADFFEALSKLELEHHHHHH,not soluble
6,MHYQPKQDLLQNRIILVTGASDGIGREAALTYARYGATVILLGRNEEKLRRVAQHIADEQHVQPQWFTLDLLTCTAEECRQVADRIAAHYPRLDGVLHNAGLLGEIGPMSEQDPQIWQDVMQVNVNATFMLTQALLPLLLKSDAGSLVFTSSSVGRQGRANWGAYATSKFATEGMMQVLADEYQNRSLRVNCINPGGTRTSMRASAFPTEDPQKLKTPADIMPLYLWLMGDDSRRKTGMTFDAQPGRKPGIAQ,not soluble
7,MHYSSGNYEAFVRPRKSESADKKTAWLVGSGLAGLAGAAFLIRDGGVAGERITILEELDVPGGALDGLDVPEKGFVIRGGREMEEHFECLWDLYRSIPSLEVEDASVLDEFYRLNKDDPNFSLQRATQNQGQDAPDKALLTLNDRAQKDLLSVFLATREEMENKRINEVFSEDFLKSNFWLYWRTMFAFEEWHSALEMKLYLHRFIHHIGNLADFSSLKFNRYNQYESMVLPLVKWLQDHGVRFRYGIEVTDVDFDIHAEGKQATRIHWTEKGVEGGVDLGPDDLVLITIGSLTENSDNGDHHTPAKLREGPAPAWDLWRRIAAKDPAFGRPDVFGAHVTETKWASATITALDQRIPQYVEKIAKRNPFTGKIVTGGIVTVKDSSWLMSWAVHRQPHFKKQPKDQMIAWLYALFVDRPGDYVKKPMLDCTGEEITQEWLYHLGVPVEDIPELAAAGANTVPVMMPYITAFFMPRQAGDRPDVVPEGAVNFAFIGQFAESKQRDCIFTTEYSVRTPMEAVYTLMNVERGVPEVFNSTYDIRTLLAAIGPLRDGKGIDLPGPSFLHKLLMKKLEGTEIAELLKEFHLISELEHHHHHH,not soluble
